From US20210147508A1 (ACCELERON PHARMA, published 2021)

T1: TGFβ3 (human, UniProt P10600 301-412)
T1 sequence (looked up): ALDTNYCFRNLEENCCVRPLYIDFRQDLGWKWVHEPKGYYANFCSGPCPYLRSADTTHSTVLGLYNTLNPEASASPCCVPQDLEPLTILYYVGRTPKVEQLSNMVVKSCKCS

T2: TGFβ2 (human, UniProt P61812 303-414)
T2 sequence (looked up): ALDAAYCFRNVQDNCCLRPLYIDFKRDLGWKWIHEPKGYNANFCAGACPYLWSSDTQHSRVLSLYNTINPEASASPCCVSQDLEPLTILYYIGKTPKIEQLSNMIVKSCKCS


Tests used:
Test in all cases: cell-based or functional assay
TGFβ3 = molecular target: T1, TGFβ3
TGFβ1 = TGFβ1 (human, UniProt P01137 279-390)
Chain of TGFβ1 (P01137 279-390 limits assumed): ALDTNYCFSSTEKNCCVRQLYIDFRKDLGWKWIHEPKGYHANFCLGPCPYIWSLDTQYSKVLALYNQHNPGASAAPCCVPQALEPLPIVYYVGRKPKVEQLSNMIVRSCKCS

TGFβ2 = molecular target: T2, TGFβ2

IC50 (pM), inhibition of TGFβ3 (270 pg/mL), CAGA12-luciferase reporter in A549 cells (TGFβ3) [pM] | IC50 (pM), inhibition of TGFβ1 (640 pg/mL), CAGA12-luciferase reporter in A549 cells (TGFβ1) [pM] | IC50 (pM), inhibition of TGFβ2 (480 pg/mL), CAGA12-luciferase reporter in A549 cells (TGFβ2) [pM] | Binder
< 90 | < 350 | ~200 | TGFβRIISHORT-Fc:ALK5-Fc heterodimer (Fc fusion) chain 1: TIPPHVQKSVNNDMIVTDNNGAVKFPQLCKFCDVRFSTCDNQKSCMSNCSITSICEKPQEVCVAVWRKNDENITLETVCHDPKLPYHDFILEDAASPKCIMKEKKKPGETFFMCSCSSDECNDNIIFSEEYNTSNPDTGGGTHTCPPCPAPELLGGPSVFLFPPKPKDTLMISRTPEVTCVVVDVSHEDPEVKFNWYVDGVEVHNAKTKPREEQYNSTYRVVSVLTVLHQDWLNGKEYKCKVSNKALPAPIEKTISKAKGQPREPQVYTLPPSRKEMTKNQVSLTCLVKGFYPSDIAVEWESNGQPENNYKTTPPVLKSDGSFFLYSKLTVDKSRWQQGNVFSCSVMHEALHNHYTQKSLSLSPGK chain 2: ALLPGATALQCFCHLCTKDNFTCVTDGLCFVSVTETTDKVIHNSMCIAEIDLIPRDRPFVCAPSSKTGSVTTTYCCNQDHCNKIELPTTVKSSPGLGPVETGGGTHTCPPCPAPELLGGPSVFLFPPKPKDTLMISRTPEVTCVVVDVSHEDPEVKFNWYVDGVEVHNAKTKPREEQYNSTYRVVSVLTVLHQDWLNGKEYKCKVSNKALPAPIEKTISKAKGQPREPQVYTLPPSREEMTKNQVSLTCLVKGFYPSDIAVEWESNGQPENNYDTTPPVLDSDGSFFLYSDLTVDKSRWQQGNVFSCSVMHEALHNHYTQKSLSLSPG
35 | 204 | 154 | TGFβRIILONG-Fc:ALK5-Fc heterodimer (Fc fusion) chain 1: TIPPHVQKSDVEMEAQKDEIICPSCNRTAHPLRHINNDMIVTDNNGAVKFPQLCKFCDVRFSTCDNQKSCMSNCSITSICEKPQEVCVAVWRKNDENITLETVCHDPKLPYHDFILEDAASPKCIMKEKKKPGETFFMCSCSSDECNDNIIFSEEYNTSNPDTGGGTHTCPPCPAPELLGGPSVFLFPPKPKDTLMISRTPEVTCVVVDVSHEDPEVKFNWYVDGVEVHNAKTKPREEQYNSTYRVVSVLTVLHQDWLNGKEYKCKVSNKALPAPIEKTISKAKGQPREPQVYTLPPSRKEMTKNQVSLTCLVKGFYPSDIAVEWESNGQPENNYKTTPPVLKSDGSFFLYSKLTVDKSRWQQGNVFSCSVMHEALHNHYTQKSLSLSPGK chain 2: ALLPGATALQCFCHLCTKDNFTCVTDGLCFVSVTETTDKVIHNSMCIAEIDLIPRDRPFVCAPSSKTGSVTTTYCCNQDHCNKIELPTTVKSSPGLGPVETGGGTHTCPPCPAPELLGGPSVFLFPPKPKDTLMISRTPEVTCVVVDVSHEDPEVKFNWYVDGVEVHNAKTKPREEQYNSTYRVVSVLTVLHQDWLNGKEYKCKVSNKALPAPIEKTISKAKGQPREPQVYTLPPSREEMTKNQVSLTCLVKGFYPSDIAVEWESNGQPENNYDTTPPVLDSDGSFFLYSDLTVDKSRWQQGNVFSCSVMHEALHNHYTQKSLSLSPG
